# Assays:
# [1] = target: H3K4me1 peptide (H3 tail residues 1-20) (UniProt P68431)
# [2] = target: H3K4me1T6ph peptide (H3 tail residues 1-20) (UniProt P68431)
# [3] = target: H3K4me2 peptide (H3 tail residues 1-20) (UniProt P68431)
# [4] = target: H3K4me2T6ph peptide (H3 tail residues 1-20) (UniProt P68431)
# GST H3 1-15 T6A = GST H3 1-15 T6A (UniProt P68431)
# [5] = target: GST-H3 1-135 (full-length histone H3) (UniProt P68431)
# GST-H3 1-135 T6A = GST-H3 1-135 T6A (UniProt P68431)
# GST-H3 1-15 = GST-H3 1-15 (UniProt P68431)
# GST-H3 16-30 = GST-H3 16-30 (UniProt P68431)
# GST-H3 29-44 = GST-H3 29-44 (UniProt P68431)
# [6] = target: histone H3 in untreated nucleosomes purified from HeLa cells (UniProt P68431)
Substance,"demethylation assay, mass spectrometry [1]","demethylation assay, mass spectrometry [2]","demethylation assay, mass spectrometry [3]","demethylation assay, mass spectrometry [4]",phosphorylation in the presence of [γ-32P]ATP (autoradiography) (GST H3 1-15 T6A),phosphorylation in the presence of [γ-32P]ATP (autoradiography) [5],phosphorylation in the presence of [γ-32P]ATP (autoradiography) (GST-H3 1-135 T6A),phosphorylation in the presence of [γ-32P]ATP (autoradiography) (GST-H3 1-15),phosphorylation in the presence of [γ-32P]ATP (autoradiography) (GST-H3 16-30),phosphorylation in the presence of [γ-32P]ATP (autoradiography) (GST-H3 29-44),"phosphorylation of nucleosomes at H3T6 (in vitro kinase assay, Western blot with α-H3T6ph) [6]"
bacterially expressed and purified His-LSD1,demethylation of H3K4me1 by LSD1,demethylation of H3K4me1 by LSD1 is completely abrogated in the presence of phosphorylated T6,The robust demethylation of H3K4me2 observed in the presence of LSD1,is completely blocked when the peptides are phosphorylated at T6,–,–,–,–,–,–,–
purified recombinant active PKCβI (ProQinase),–,–,–,–,mutation of threonine 6 to alanine in either H3 1-15 (H3 1-15 T6A) or in full length H3 (H3 1-135 T6A) abolishes phosphorylation,"only full-length histone H3 (H3 1-135) and a H3 fragment spanning amino acid residues 1 to 15 (H3 1-15), but not H3 16-30 or H3 29-44, are phosphorylated by PKCβI",mutation of threonine 6 to alanine in either H3 1-15 (H3 1-15 T6A) or in full length H3 (H3 1-135 T6A) abolishes phosphorylation,"only full-length histone H3 (H3 1-135) and a H3 fragment spanning amino acid residues 1 to 15 (H3 1-15), but not H3 16-30 or H3 29-44, are phosphorylated by PKCβI","but not H3 16-30 or H3 29-44, are phosphorylated by PKCβI","but not H3 16-30 or H3 29-44, are phosphorylated by PKCβI","only PKCα, 131 and 132 phosphorylate nucleosomes at H3T6"
purified recombinant active PKCδ (ProQinase),–,–,–,–,–,–,–,–,–,–,"only PKCα, 131 and 132 phosphorylate nucleosomes at H3T6 (PKCδ tested, no phosphorylation)"

# From patent publication US20120329854
